Some results are limits rather than exact numbers.

What all share (assay): IEDB peptide-MHC binding, purified MHC/competitive/radioactivity; filed as Kd, often an IC50 or EC50 that approximates it; ≥ and ≤ were set here for values at or beyond the usual limits of such assays
Experiment [1] concerns the target HLA-A*33:01.
The target in experiment [2] is HLA-A*11:01.
In experiment [3] the target is HLA-A*03:01.
The target in experiment [4] is HLA-A*31:01.
The target in experiment [5] is HLA-A*68:01.
[6] abbreviates: source organism: Vaccinia virus Copenhagen.
Where [7] appears, read: source organism: Lassa virus Josiah.
Where [8] appears, read: source organism: SARS coronavirus Tor2.
[9] abbreviates: source organism: Vaccinia virus WR.

Turning to SSLDQTHIK, the Kd – broadly, a measure of binding affinity in units of concentration – in experiment [1] (setting [6]) was found to be 19800 nM; in experiment [2] (setting [6]), 31.8 nM; in experiment [3] (setting [6]) it was 961 nM; in experiment [4] (setting [6]), 26 nM; in experiment [5] (setting [6]) it was 1490 nM.
Turning to TLTNTSIINH, the Kd was at least 70000 nM in experiment [1] (setting [7]); 15400 nM in experiment [2] (setting [7]); 5160 nM in experiment [3] (setting [7]); at least 59800 nM in experiment [4] (setting [7]); 13100 nM in experiment [5] (setting [7]).
With AVHDFFKFR, the Kd in experiment [1] (setting [8]) is 273 nM; in experiment [2] (setting [8]), 7.56 nM; in experiment [3] (setting [8]), 7140 nM; in experiment [4] (setting [8]), 4.9 nM; in experiment [5] (setting [8]), 11.3 nM.
With GLTTHCTKLR, the Kd in experiment [1] (setting [9]) is 4210 nM; in experiment [2] (setting [9]), 4630 nM; in experiment [3] (setting [9]) it was 5180 nM; in experiment [4] (setting [9]), 511 nM; in experiment [5] (setting [9]), 12100 nM.
STRTIILVGY: the Kd was 8020 nM in experiment [1] (setting [9]); 221 nM in experiment [2] (setting [9]); 188 nM in experiment [3] (setting [9]); 339 nM in experiment [4] (setting [9]); 100 nM in experiment [5] (setting [9]).
In the case of SLSVETITEK, the Kd was at least 70000 nM in experiment [1] (setting [9]); 117 nM in experiment [2] (setting [9]); 33.2 nM in experiment [3] (setting [9]); 1250 nM in experiment [4] (setting [9]); 12200 nM in experiment [5] (setting [9]).
ATMLEYVRY: the Kd in experiment [1] (setting [9]) was at least 77700 nM; in experiment [2] (setting [9]), 23.5 nM; in experiment [3] (setting [9]) it was 1700 nM; in experiment [4] (setting [9]), 3410 nM; in experiment [5] (setting [9]), at least 29400 nM.
As for IITPVVFYR, the Kd in experiment [1] (setting [9]) was found to be 6.62 nM; in experiment [2] (setting [9]), 0.322 nM; in experiment [3] (setting [9]), 59.2 nM; in experiment [4] (setting [9]) it was 1.08 nM; in experiment [5] (setting [9]), 0.0181 nM.
For PISELSRLRY, the Kd is 15500 nM in experiment [1] (setting [9]); 735 nM in experiment [2] (setting [9]); 3270 nM in experiment [3] (setting [9]); at least 70000 nM in experiment [4] (setting [9]); at least 44900 nM in experiment [5] (setting [9]).
DIICEDAMY: the Kd is at least 20200 nM in experiment [1] (setting [9]); at least 77900 nM in experiment [2] (setting [9]); at least 78000 nM in experiment [3] (setting [9]); at least 77900 nM in experiment [4] (setting [9]); 4550 nM in experiment [5] (setting [9]).
Turning to IFREIASSMK, the Kd was found to be 467 nM in experiment [1] (setting [9]); 1570 nM in experiment [2] (setting [9]); 198 nM in experiment [3] (setting [9]); 425 nM in experiment [4] (setting [9]); 3470 nM in experiment [5] (setting [9]).
In the same order, the values of NVIEDITFLR are 12.5 nM, 230 nM, 6720 nM, 64.4 nM and 1.59 nM.
Consider VLCNSQTSLR, for which the Kd amounted to 1180 nM in experiment [1] (setting [8]); 1860 nM in experiment [2] (setting [8]); 435 nM in experiment [3] (setting [8]); 68.4 nM in experiment [4] (setting [8]); 1010 nM in experiment [5] (setting [8]).
In the case of TFNSLNTDDY, the Kd in experiment [1] (setting [9]) is at least 70000 nM; in experiment [2] (setting [9]), 10100 nM; in experiment [3] (setting [9]), 5440 nM; in experiment [4] (setting [9]), at least 34200 nM; in experiment [5] (setting [9]), 4080 nM.
For the sequence IFAFIDFSK, the Kd in experiment [1] (setting [6]) came out at 42.6 nM; in experiment [2] (setting [6]), 20.5 nM; in experiment [3] (setting [6]) it was 78.2 nM; in experiment [4] (setting [6]), 251 nM; in experiment [5] (setting [6]) it was 8.56 nM.
SVIRLLIWAY: the Kd in experiment [1] (setting [9]) turned out to be 17600 nM; in experiment [2] (setting [9]), 17.3 nM; in experiment [3] (setting [9]) it was 1380 nM; in experiment [4] (setting [9]), 2240 nM; in experiment [5] (setting [9]) it was 776 nM.
For DFYDFAVSK, the Kd in experiment [1] (setting [8]) is 9.36 nM; in experiment [2] (setting [8]), 8940 nM; in experiment [3] (setting [8]) it was 4110 nM; in experiment [4] (setting [8]), 12400 nM; in experiment [5] (setting [8]), 56.9 nM.
Turning to AITPTIEDDK, the Kd in experiment [1] (setting [9]) is at least 42600 nM; in experiment [2] (setting [9]), 115 nM; in experiment [3] (setting [9]), 487 nM; in experiment [4] (setting [9]), at least 47900 nM; in experiment [5] (setting [9]), 6640 nM.
Consider QLMYALEPRK, for which the Kd is at least 70000 nM in experiment [1] (setting [6]); 85 nM in experiment [2] (setting [6]); 150 nM in experiment [3] (setting [6]); 8370 nM in experiment [4] (setting [6]); 83.8 nM in experiment [5] (setting [6]).
Take NTRQLKLLEY: the Kd in experiment [1] (setting [9]) was found to be 10800 nM; in experiment [2] (setting [9]), 152 nM; in experiment [3] (setting [9]), 969 nM; in experiment [4] (setting [9]) it was 9830 nM; in experiment [5] (setting [9]), 1590 nM.
Regarding MSLSEQLRK, the Kd in experiment [1] (setting [8]) is 4730 nM; in experiment [2] (setting [8]) it was 4.01 nM; in experiment [3] (setting [8]), 8.24 nM; in experiment [4] (setting [8]), 181 nM; in experiment [5] (setting [8]) it was 169 nM.
For the sequence VLDRDGNFR, the Kd stood at 607 nM in experiment [1] (setting [9]); 15600 nM in experiment [2] (setting [9]); 3330 nM in experiment [3] (setting [9]); 159 nM in experiment [4] (setting [9]); 926 nM in experiment [5] (setting [9]).
In the same order, the values of AALFMYYAKR are 837 nM, 178 nM, 312 nM, 16.8 nM and 33.1 nM.

The values above are taken from the Immune Epitope Database (IEDB).
